Consider 40 sequences from the supplement of paper PMC7877785.

± gives the uncertainty stated by the source.

The series is described as follows: self-splicing fitness, log relative to wild type (ln ratio); higher = more splicing; Tetrahymena group I intron in knt gene, E. coli kanamycin selection, DiMSum; sequences stand for … in CUCUCU…GGAGGGAAAAGUUAUCAGGCAUGCACCUGGUAGCUAGUCUUUAAACCAAUAGAUUGCAUCGGUUUAAAAGGCAAGACCGUCAAAUUGCGGGAAAGGGGUCAACAGCCGUUCAGUACCAAGUCUCAGGGGAAACUUUGAGAUGGCCUUGCAAAGGGUAUGGUAAUAAGCUGACGGACAUGGUCCUAACCACGCAGCCAAGUCCUAAGUCAACAGAUCUUCUGUUGAUAUGGAUGCAGUUCACAGACUAAAUGUCGGUCGGGGAAGAUGUAUUCUUCUCAUAAGAUAUAGUCGGACCUCUCCUUAAUGGGAGCUAGCGGAUGAAGUGAUGCAACACUGGAGCCGCUGGGAACUAAUUUGUAUGCGAAAGUAUAUUGAUUAGUUUUGGAGUACUCGUGGUCG
The method in brief: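 Colonies from six replicate transformations of E. coli BL21(DE3) were pooled and amplicon-sequenced on an Illumina HiSeq 2500. The library placed an intron with all eight P1ex-region nucleotides randomised inside the knt kanamycin-resistance gene on pET-22b(+), and cells grew overnight at 37°C or 30°C on LB agar with or without 25 μg/mL kanamycin (plus 100 μg/mL carbenicillin, 50 μM IPTG, 0.2% rhamnose). Fitness is the DiMSum error-weighted combination of wild-type-normalised replicate fold changes, kanamycin versus none.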

Take GUAGAGCAAUAUUACGUGCU: where the note is “37 °C”, the “self-splicing fitness (ln)” value was -1.29 ± 0.39.
Consider UUUUAGCAAUAUUACGAUGU, for which the “self-splicing fitness (ln)” value (30 °C) was -2.19 ± 0.23 and the “self-splicing fitness (ln)” value (37 °C) is -1.6 ± 0.16.
As to CAUAAGCAAUAUUACGCCUC, the “self-splicing fitness (ln)” value is -2.88 ± 0.39 (30 °C) and -1.75 ± 0.41 (37 °C).
As to GCCUAGCAAUAUUACGCCUU, the “self-splicing fitness (ln)” value was -1.15 ± 0.086 (30 °C) and -0.212 ± 0.1 (37 °C).
The corresponding values for CUCCAGCAAUAUUACGUAUA are -3.54 ± 0.23 and -0.63 ± 0.16.
In the case of GGGGAGCAAUAUUACGUUUA, the “self-splicing fitness (ln)” value was -2.13 ± 0.28 (30 °C) and -2.77 ± 0.48 (37 °C).
GCUCAGCAAUAUUACGGUAG: the “self-splicing fitness (ln)” value reads like this: (30 °C) -2.79 ± 0.26; (37 °C) -1.89 ± 0.21.
GCUUAGCAAUAUUACGAUAG: the “self-splicing fitness (ln)” value was -2.11 ± 0.096 (30 °C) and -0.174 ± 0.097 (37 °C).
The corresponding values for AUACAGCAAUAUUACGGCCG are -1.33 ± 0.16 and -1.14 ± 0.23.
As to GAUGAGCAAUAUUACGCUCG, the “self-splicing fitness (ln)” value is -3.02 ± 0.3 (30 °C) and -2.75 ± 0.38 (37 °C).
The corresponding values for UAAUAGCAAUAUUACGUCGA are -2.4 ± 0.17 and -0.993 ± 0.16.
In the case of GCACAGCAAUAUUACGCAAC, the “self-splicing fitness (ln)” value was -2.31 ± 0.17 (30 °C) and -1.03 ± 0.19 (37 °C).
The corresponding values for CCCGAGCAAUAUUACGAUUU are -3.84 ± 0.23 and -2.15 ± 0.2.
The corresponding values for CGUAAGCAAUAUUACGAACU are -1.27 ± 0.083 and -0.364 ± 0.074.
For CGUAAGCAAUAUUACGUAGC, in that order: -4.38 ± 0.36 and -1.62 ± 0.26.
Turning to UUAUAGCAAUAUUACGAGAA, where the note is “37 °C”, the “self-splicing fitness (ln)” value is -1.51 ± 0.38.
Still for that read-out and setting: next, GACGAGCAAUAUUACGCUGG: -2.79 ± 0.43.
For the sequence CGACAGCAAUAUUACGCCUG, the “self-splicing fitness (ln)” value reads like this: (30 °C) -0.901 ± 0.066; (37 °C) -0.0701 ± 0.069.
For UCGCAGCAAUAUUACGGAGC, in that order: -3.54 ± 0.35 and -1.89 ± 0.26.
For CUCGAGCAAUAUUACGAUUU, the “self-splicing fitness (ln)” value is, setting by setting: (30 °C) -3.73 ± 0.2; (37 °C) -2.91 ± 0.21.
The corresponding values for GUAGAGCAAUAUUACGUGGC are -1.52 ± 0.17 and -1.29 ± 0.27.
For GUCCAGCAAUAUUACGUGAG, in that order: 0.151 ± 0.044 and 0.375 ± 0.065.
As for GCUUAGCAAUAUUACGCCGG, the “self-splicing fitness (ln)” value is -1.97 ± 0.2 (30 °C) and -1.44 ± 0.22 (37 °C).
Consider GCCGAGCAAUAUUACGGCAC, for which the “self-splicing fitness (ln)” value runs as follows: (30 °C) -2.24 ± 0.19; (37 °C) -1.71 ± 0.23.
Turning to AGGUAGCAAUAUUACGUAUG, the “self-splicing fitness (ln)” value is, setting by setting: (30 °C) -3.698 ± 0.027; (37 °C) -2.53 ± 0.038.
The corresponding values for GAAUAGCAAUAUUACGUUUC are -3.37 ± 0.19 and -2.4 ± 0.29.
For GUGUAGCAAUAUUACGGCAU, in that order: -3.48 ± 0.41 and -0.582 ± 0.2.
The corresponding values for CAUCAGCAAUAUUACGGGUC are -2.63 ± 0.11 and -0.644 ± 0.1.
For AUGGAGCAAUAUUACGGAAG, for the setting “30 °C”, the “self-splicing fitness (ln)” value was -3.24 ± 0.38.
Consider CUCCAGCAAUAUUACGGUUG, for which the “self-splicing fitness (ln)” value was -2.69 ± 0.097 (30 °C) and -1.01 ± 0.12 (37 °C).
The corresponding values for GACCAGCAAUAUUACGACCG are -0.572 ± 0.11 and -0.318 ± 0.17.
The corresponding values for ACACAGCAAUAUUACGAAAA are -3.2 ± 0.19 and -3 ± 0.19.
The corresponding values for GCCGAGCAAUAUUACGCUAC are -3.91 ± 0.31 and -4.08 ± 0.47.
In the case of UGUGAGCAAUAUUACGUCGC, the “self-splicing fitness (ln)” value (30 °C) was -1.15 ± 0.21.
For the sequence UGAUAGCAAUAUUACGGGAC, the “self-splicing fitness (ln)” value was -4.2 ± 0.31 (30 °C) and -2.54 ± 0.25 (37 °C).
Turning to CCAGAGCAAUAUUACGCACU, under “30 °C”, the “self-splicing fitness (ln)” value is -2.9 ± 0.25.
As to AAGGAGCAAUAUUACGCUUA, the “self-splicing fitness (ln)” value runs as follows: (30 °C) -1.49 ± 0.17; (37 °C) -1.1 ± 0.16.
For the sequence UUAUAGCAAUAUUACGCGAC, the “self-splicing fitness (ln)” value is, setting by setting: (30 °C) -2.5 ± 0.19; (37 °C) -1.98 ± 0.2.
For CCGUAGCAAUAUUACGUGAG, in that order: -3.11 ± 0.34 and -2.51 ± 0.38.
The corresponding values for GAAUAGCAAUAUUACGGGCC are -1.6 ± 0.26 and -1.13 ± 0.37.
